± gives the uncertainty stated by the source.
Assay: self-splicing fitness, log relative to wild type (ln ratio); higher = more splicing; Tetrahymena group I intron in knt gene, E. coli kanamycin selection, DiMSum; sequences stand for … in CUCUCU…GGAGGGAAAAGUUAUCAGGCAUGCACCUGGUAGCUAGUCUUUAAACCAAUAGAUUGCAUCGGUUUAAAAGGCAAGACCGUCAAAUUGCGGGAAAGGGGUCAACAGCCGUUCAGUACCAAGUCUCAGGGGAAACUUUGAGAUGGCCUUGCAAAGGGUAUGGUAAUAAGCUGACGGACAUGGUCCUAACCACGCAGCCAAGUCCUAAGUCAACAGAUCUUCUGUUGAUAUGGAUGCAGUUCACAGACUAAAUGUCGGUCGGGGAAGAUGUAUUCUUCUCAUAAGAUAUAGUCGGACCUCUCCUUAAUGGGAGCUAGCGGAUGAAGUGAUGCAACACUGGAGCCGCUGGGAACUAAUUUGUAUGCGAAAGUAUAUUGAUUAGUUUUGGAGUACUCGUGGUCG
Procedure, shortened: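 Library with all eight P1ex-region intron nucleotides randomised, intron inside the knt kanamycin-resistance gene on pET-22b(+), in E. coli BL21(DE3). Cells grew overnight at 37°C or 30°C on LB agar with or without 25 μg/mL kanamycin (plus 100 μg/mL carbenicillin, 50 μM IPTG, 0.2% rhamnose), in six replicate transformations. Pooled colonies were amplicon-sequenced on Illumina HiSeq 2500. DiMSum fitness is the error-weighted combination of wild-type-normalised replicate fold changes, kanamycin versus none.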

Sequence	self-splicing fitness (ln) (37 °C)	self-splicing fitness (ln) (30 °C)
UAAUAGCAAUAUUACGCGGA	-1.82 ± 0.19	
UAAUAGCAAUAUUACGCGUG	-0.125 ± 0.12	-1.37 ± 0.1
UAAUAGCAAUAUUACGCUCU	-0.42 ± 0.18	-1.03 ± 0.14
UAAUAGCAAUAUUACGGAAG	-0.76 ± 0.16	-3.02 ± 0.21
UAAUAGCAAUAUUACGGACA	-0.393 ± 0.16	-1.12 ± 0.17
UAAUAGCAAUAUUACGGACC	-1.42 ± 0.29	
UAAUAGCAAUAUUACGGAUG	-0.737 ± 0.087	-1.58 ± 0.08
UAAUAGCAAUAUUACGGCAA	-0.69 ± 0.12	-1.99 ± 0.14
UAAUAGCAAUAUUACGGCAG	-0.425 ± 0.13	-1.08 ± 0.1
UAAUAGCAAUAUUACGGCGU	-1.6 ± 0.24	-2.6 ± 0.19
UAAUAGCAAUAUUACGGGAA	-2.11 ± 0.26	-2.04 ± 0.21
UAAUAGCAAUAUUACGGGAU	-2.49 ± 0.22	-4.36 ± 0.46
UAAUAGCAAUAUUACGGGGA	-2.65 ± 0.34	-1.91 ± 0.15
UAAUAGCAAUAUUACGGGUA	-0.433 ± 0.14	-1.9 ± 0.17
UAAUAGCAAUAUUACGGUCG	0.313 ± 0.11	-0.872 ± 0.1
UAAUAGCAAUAUUACGUAAC	-2.03 ± 0.38	
UAAUAGCAAUAUUACGUAUG	-0.28 ± 0.13	-1.88 ± 0.12
UAAUAGCAAUAUUACGUGCC	-1.47 ± 0.31	-3.27 ± 0.43
UAAUAGCAAUAUUACGUGGA	-2.33 ± 0.24	-2.97 ± 0.23
UAAUAGCAAUAUUACGUUAC	-2.2 ± 0.23	-4.32 ± 0.34
UAAUAGCAAUAUUACGUUCA	-0.14 ± 0.1	-0.833 ± 0.098
UAAUAGCAAUAUUACGUUCC	-1.52 ± 0.48	

Sequence	self-splicing fitness (ln) (37 °C)	self-splicing fitness (ln) (30 °C)
UACAAGCAAUAUUACGAACU	-0.628 ± 0.1	-1.48 ± 0.089
UACAAGCAAUAUUACGAAGG	-1.38 ± 0.12	-2.52 ± 0.11
UACAAGCAAUAUUACGACAA	-0.403 ± 0.11	-0.986 ± 0.11
UACAAGCAAUAUUACGAGCG	-0.0756 ± 0.099	-0.155 ± 0.074
UACAAGCAAUAUUACGAUAA	-0.276 ± 0.12	-1.93 ± 0.13
UACAAGCAAUAUUACGAUAU	-1.66 ± 0.19	-2.75 ± 0.15
UACAAGCAAUAUUACGAUGG	-0.712 ± 0.085	-1.37 ± 0.079
UACAAGCAAUAUUACGAUUU	-0.754 ± 0.084	-1.76 ± 0.066
UACAAGCAAUAUUACGCAAA	-1.51 ± 0.14	-2.24 ± 0.14
UACAAGCAAUAUUACGCACU	-0.133 ± 0.09	-0.66 ± 0.077
UACAAGCAAUAUUACGCUCC	-0.668 ± 0.17	-2.38 ± 0.17
UACAAGCAAUAUUACGCUUU	-2.29 ± 0.16	-3.73 ± 0.17
UACAAGCAAUAUUACGGCUC	-0.468 ± 0.11	-1.46 ± 0.088
UACAAGCAAUAUUACGGGGU	-2.58 ± 0.15	-3.88 ± 0.15
UACAAGCAAUAUUACGGGUC	-2.78 ± 0.16	-3.32 ± 0.16
UACAAGCAAUAUUACGGUCC	-1.34 ± 0.18	-1.38 ± 0.18
UACAAGCAAUAUUACGGUGU	-1.71 ± 0.12	-3.91 ± 0.17
UACAAGCAAUAUUACGUAAU	-0.0213 ± 0.15	-2.72 ± 0.18
UACAAGCAAUAUUACGUCAG	-2 ± 0.15	-2.54 ± 0.14
UACAAGCAAUAUUACGUCUG	0.299 ± 0.08	-0.521 ± 0.071
UACAAGCAAUAUUACGUUUA	-0.605 ± 0.072	-1.33 ± 0.07

From the supplement of paper PMC7877785
